Results reported in publication PMC10067955.

Biological target: NcsA from Methanococcus maripaludis (Methanococcus maripaludis)
Experiment: SEC; apo-MmNcsA on a gel filtration column calibrated with protein standards

Substance “NcsA from Methanococcus maripaludis (enzyme)” has a stoichiometry N of 2.
